Results as given in the DeepSol protein solubility set.

test: soluble on expression in E. coli; label from the status in PepcDB or PDB records

Sequence | soluble on expression in E. coli
MGSDKIHHHHHHMYHEFTPCAALVPFIDKFWVFKGFTDIGTRFKILADGCTDFIFSIGNMTVPTDEHSMIMQPYRSFFVGPMRSYSNLTATTDSLHMLGVRFQPCGLAAFTNEPLGQFADLRIQSSDINLLFDNSFAEMLCEQPDDSVRIRIIEGYLIRLLTQSIQVDRQIIYATSFIKQSYGQLPVQNLIDKICICQRHFQRKFKDATGYTPKEFSRIIKFQYAIEVLRNAPHTDLSSIALDCGYYDHSHFIKEFKRLAGDVPSYFLTLPNPADEPLTYI | not soluble
MGSDKIHHHHHHMYKINIIRSDSVYKNILKAPINDRDSIFTKEILVPFKKKFEVQHMPIYNDDKQTMSAIQFLDAFQISPKDLRMSDQMSIQYLNNDFWSNCEKYLKVAIDQFSNYSISSQVSNYHFTVLLGDSQKPLMYLNKNRGGDGGIPGYIMIYLVPSTSTINSMKSLIAHEVNHNMRYQYIDWDGGSLIELIIAEGLAENYVESLYGKAHIGPWVTNTNWSRDNVKIKNTIYNHLHLKHIFESMPYLYGDDINKLQGRPIVGLSHAAGYACGYHLVKYFLQKTNIPIEVATTLPAQKIINEVTEFWHTHTL | not soluble
MGSDKIHHHHHHMYSFVARQPILNQHRQTVAYELLFRMDITNKFPDVSPEFATAQLISDQFLTNPLARSVVEQPYYINFPHQMLINGQAEVLPQEKVVIEILENAAPDNDLFAAVKKLKRKGFKIALDDFSMDSEWDRFLPYIDVIKFDLTLSTFGDIENFIKRTKQRKLIYLAEKVETHEQYMQSKKLGISLFQGYFFSRPEMIKSKKLVNKSSNTIRLLREVNKPEINYAAIEELVCADLSLYYKLMRHITNIKYNTRFGITATSMSFRSMAMLLGQRELKRFVSLISITNSNENKPSELYRTSLIRARFFELLYASFNVKEDTTEAFLCGLLSLLDAVLDSPMPLLLSQIALSEKINQSLLENTGELAVYLTLIAKYEQQEWEELERLLIQLGIDEENFFTMIMEATQWADEIL | not soluble
MGSDKIHHHHHHMYTFTNQFISNDKNVEFLKAAMMGPNAMRLAEELSSHLNIDETMRILDLGCGCGLSTLLLTKKYGASVFAADLWISPTENYERFQSLGIADKAVPISVDATKGLPFAKGYFDLLFTVDAYHYFGDTAAMLPSLIPFVKKGGYIAVAIPGLNYEFEDKVPDEMQPFWNSEMARTLHSLDWWKDLWKKAEGIEMVDSREMACCREAWQEWLTAYHPIVAEDIKMMAAEDGKYFNLVQLIAKVL | not soluble
MGSDKIHHHHHHMYTIAIDLGGTVVKIGLLSDGEIVDCVRLPSRLALGLALNLPKIKEAIDRLLAAWRIDVAALRCIGLAFPGLVDPIHNRVISTNEKYDDACSISLDKWAWENWEVPFCMDNDARLAVAGEWWQGAARGKNNVVMMTIGTGIGTGVVIDGRLLYGQHFQAGSLGGHFVLDYKGRRCSCGNKGCVEALSSSFFLPTIIREHALLSESFKRDADIYDFKRIFRLAQEGNTDALLIRNECMDIWASAIITYIHAYDPEVVILGGGILKSQEVIIPYISKRVDELAWCPSGKVPVVPAILGDDAALFGLEYFMVKQQQNERICI | not soluble
MGSDKIHHHHHHMYVTSQIHAKGSDLAKLMQIAALKGNEEVLDVATGGGHVANAFAPFVKKVVAFDLTEDILKVARAFIEGNGHQQVEYVQGDAEQMPFTDERFHIVTCRIAAHHFPNPASFVSEAYRVLKKGGQLLLVDNSAPENDAFDVFYNYVEKERDYSHHRAWKKSDWLKMLEEAGFELEELHCFHKTFIFEDWCDRMNVTTEKKQELSDFIKSKPTEYYQKFKIVVEDGRVYSFRGESILMKARKPTVKNKGSS | soluble
MGSDKIHHHHHHMYYRPADGHGLPHNPFNAIVSPRPIGWISTRGEGGGDNLAPYSFFNAVAYEPPQVMFSSTSAKEDRGDTKDSVANIRETGVFCVNIVEYAARDAMNETSGPWPATEDEFQRAGIERADCTEIPCSRVASAPANLECRVTQIIKLEGAHNFAVFGEVVGVHIRDDVLVDGHFDVTRFNPLTRMGYRDYSVIRDVFSLKRPGE | not soluble
MGSDKIHHHHHHNFDDLLQLLEIHSRVFDVTPPSTGTVGSMRYLEYNGHVLANVEDLYILDNNKLPSPGVPVETLKLFGVDYIQTGDGVKIITCRVNSIEEIGKTVVVNFEGEKNFDVEQTQNSVRIIAKDWLLFRGVVKMPEEVLYEKENVRIERTAESDGQFRILLSAESVGKYVVKPFGERVDPYEKDVVFLVGYGDGRIIVRSFSKDLNGLDLPAYSESLKLARKIANELGYKLEECPVYDIPVGVIGMIVLLKGKDEMPVFLNTVERLMAE | not soluble
MGSDKIHHHHHHNTEQQLDSEVSEPTKTMRSQQHSDGAAAITHLTPLDLPLDSQGLTDEDSQQINSLLNQLHESAMSADWDTYFDLYHPDAAFIGTDATERWNMVHFRRYASPTQGWRYDLQARHLLQIEDVVVFDEQLYSPEYGISRGTGALVNTTKGWKIAQYHLSFPIPNAKAKRITTLIKQ | not soluble
MGSDKIHHHHHHPEKKVATSVPAPQKMDGEQLFEDMQLGGVVNFLAFRQAVAGYNLIKQKSKSILTLIDFTKPSTEKRLFVFDMEQKKMLYSSVVSHGKNSGENYATSFSNEVGSYKSSLGFYLTGNTYQGRNGYSLLLDGLEKGINDRARERAIVVHGAAYANPSVCKSGRLGRSFGCPALPQALTKPIINTIKGGSVLFIYANNKEYMAKSSILPNQTSQELFTEACESEQTVSVHL | not soluble
MGSDKIHHHHHHSEDTMDRINKDHDHTTSVASRFILADVITSTAFSNASGDINTYASSYIEYEVGVDNQLYYAEVRENEPSSSSTFNNSWNGIYSSLKNARIIIDQCGEGGRDHGNDVTRGMAEVMAAYNCALIADFFGDAPCSQAALVDEKGSPVYMTPKMDTQQEIYTQIISYLDDAIANLQKEDLADVTEQDFLYAGDADKWLKFAYGLKARYTMRLINRSSNKSADYEKVLDYVSKSFTSADDQAAFDIYDSNNINPFYGFYNSRAGFGASTSLGTKLLAYNDPRANRAFFTPIVDKKRSQVAANDPSLVPAPNGSPDQSTSKYGISAFVYAKTAPTLLMSYHELMFLKAEALCRLNRDAEDALKEAVVAGLLNAENSISIAIKELGSGLNTNSSEVITETSAGKYFDDVVKAKYAANPLQETMIQKYLAMWGASGEATETYNDFRRMKGLNENFITLTNPNNSSKFPLRYPYGNSDTAANPEVKAAYGNGDYVYSEPVWWAGGSR | not soluble
MGSDKIHHHHHHVAKVPQRKLLLSEIQLGMRVKLPLSWTNHPFLFNRVDISSAAQIEMIRGLGVPYVLLLSELNPASEVVEEDENVEDEIAAEPERDLKADTRKAIRLSQKRFLENVNNCRNVFGKIVSDPEGAYRLSAALVEDLLSHLQEVEKPFLTLVGMDDSDVSVTQHGVSVAVLAMMMGHALDLSPRELRDIALGSLLHDIGKLKVPDVIRRKRGALTPHEANYLQMHPNFAYDMLNRSGLFPKEVLHIVLHHHEFIDGSGFPDGLTDHKIPITTQIVSLANDYDQQLSGQQISSPQVALGYLFKNRATKHAESLIAILVKILGIYPPGTIVRLSDDSVAKVMMTTKEVSQPQVWACKEDGSEASLRFLSDEGVTVQKAIKAEELSEGAIRTLQVDKGVSFYFSSLQT | not soluble
MGSDKIHHHHHHVCSELAKDVPTNMSIKMPSLTPSSLSSLIPSSVPSEVQNVQGKDCMKEAIGADKIARQFSQAAKHYQEHDKVQRLSAQRLRTKMTPIGRLLDIGCGPGTDFSAAPGLNEVLGLDIAPGMLSQMLESFPSYKALCGDAQALPLSDASIDTLYSNLALQWCSDIKTAIGELARVLKPGSQCHLAIVVDGSLSELDALGLRVNAFEQAQTLLDGFSDSHWQIEHHSVEPLRVHFDDLKTLLYSIKGVGASAAMGSDVSQGSDVTQDSDASHGPDDTQGSVSKPPPRLRGRQDWLALCERAEKMRQPEGLPLTYQILFIHASRRG | not soluble
MGSDKIHHHHHHVDLSVMNRKRSESFNEVAEIYDAARPSYPSQLIEDVIEMANLTDSASILDIGTGTGKGTVPFAEKGYAIYCLEPGERLIAIASQNMRLYPKVIFETVTLEDWNLRPSAFDLAISAQAFHWVNREKGYPKVAQALKEKGYIAFFWNFSILPDTSIFQALKETFQKYVPTISNAKPSSVESLIKKRENWILNSFYFKNLVVKKYPWSINYDAEGYLGLLKTQTAYQKFTGTEKQDFSDAIIQILNAHGGYVTKPYLSVLFFAQKI | not soluble
